Data: patent US20070202501A1

What was measured:
Assay in all cases: cell-based or functional assay
[1] = biological target: in-frame fusion between the extracellular domain of 2KIRDL3 (KIR2DL3) and the cytoplasmic ITIM motif of NKIR (pCXND3KIR58NKIR313), expressed in Jurkat cells (human) (UniProt P43628)
[2] = biological target: CD8-KIR fusion protein (extracellular domain of CD8 alpha chain fused to the cytoplasmic ITIM motif of KIR; pCXND3CD8KIRfull), expressed in F11 Jurkat reporter cells (human) (UniProt P01732)
[3] = biological target: CD8-NKIR fusion protein (extracellular domain of CD8 alpha chain fused to the cytoplasmic ITIM motif of NKIR; pCXND3CD8NKIRfull), expressed in F11 Jurkat reporter cells (human) (UniProt P01732)

Sequence of UniProt P43628 (P43628 other isoform, or with tags, fused parts or gaps limits assumed): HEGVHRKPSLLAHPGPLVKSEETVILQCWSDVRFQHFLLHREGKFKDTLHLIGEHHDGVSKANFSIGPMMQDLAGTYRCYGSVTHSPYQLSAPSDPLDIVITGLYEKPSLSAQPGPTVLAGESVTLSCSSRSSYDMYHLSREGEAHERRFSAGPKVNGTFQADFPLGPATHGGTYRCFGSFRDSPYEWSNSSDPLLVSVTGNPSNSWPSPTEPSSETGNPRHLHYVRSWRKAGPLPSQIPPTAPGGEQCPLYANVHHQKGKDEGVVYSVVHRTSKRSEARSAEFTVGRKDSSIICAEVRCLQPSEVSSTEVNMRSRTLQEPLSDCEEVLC

| Substance | inhibition of luciferase activity (NFAT-luciferase reporter, anti-CD3 stimulated chimeraA10ZEOR12 cells, GL183 1 µg/ml then rat anti-mouse IgG cross-linking) [1] [%] | degree of reduction of luciferase reporter activity (NFAT-luciferase, 10-hour ConA stimulation, LT8 1.5 µg/ml) [2] [%] | degree of reduction of luciferase reporter activity (NFAT-luciferase, 10-hour ConA stimulation, LT8 1.5 µg/ml; clone NKIR#16) [3] [%] | degree of reduction of luciferase reporter activity (NFAT-luciferase, 10-hour ConA stimulation, LT8 1.5 µg/ml; clone NKIR#19) [3] [%] |
| --- | --- | --- | --- | --- |
| GL183 monoclonal antibody (Beckman Coulter) | 33.3 | – | – | – |
| anti-CD8 antibody LT8 (Serotec, MCA1226XZ) | – | 16.6 | 21.2 | 30.2 |
